We go through 2 molecules from CN116496388A (BRAVOVAX CO LTD; SHANGHAI BOWO BIOTECHNOLOGY CO LTD, dated 2023).

The target in test [1] is T1, 野生型人5型腺病毒的Hexon蛋白 (人5型腺病毒 (human adenovirus type 5), UniProt P04133 2-952).
T1 construct: also called 野生型人腺病毒5型
As to the kind of experiment: Western blot, reduced virus lysate. (A western blot detects proteins with antibodies after separation by electrophoresis.)

Test [2] concerns the target T1, 野生型人5型腺病毒的Hexon蛋白. Briefly: cell immunostaining of virus-infected 293A cells.

T1 sequence (P04133 2-952): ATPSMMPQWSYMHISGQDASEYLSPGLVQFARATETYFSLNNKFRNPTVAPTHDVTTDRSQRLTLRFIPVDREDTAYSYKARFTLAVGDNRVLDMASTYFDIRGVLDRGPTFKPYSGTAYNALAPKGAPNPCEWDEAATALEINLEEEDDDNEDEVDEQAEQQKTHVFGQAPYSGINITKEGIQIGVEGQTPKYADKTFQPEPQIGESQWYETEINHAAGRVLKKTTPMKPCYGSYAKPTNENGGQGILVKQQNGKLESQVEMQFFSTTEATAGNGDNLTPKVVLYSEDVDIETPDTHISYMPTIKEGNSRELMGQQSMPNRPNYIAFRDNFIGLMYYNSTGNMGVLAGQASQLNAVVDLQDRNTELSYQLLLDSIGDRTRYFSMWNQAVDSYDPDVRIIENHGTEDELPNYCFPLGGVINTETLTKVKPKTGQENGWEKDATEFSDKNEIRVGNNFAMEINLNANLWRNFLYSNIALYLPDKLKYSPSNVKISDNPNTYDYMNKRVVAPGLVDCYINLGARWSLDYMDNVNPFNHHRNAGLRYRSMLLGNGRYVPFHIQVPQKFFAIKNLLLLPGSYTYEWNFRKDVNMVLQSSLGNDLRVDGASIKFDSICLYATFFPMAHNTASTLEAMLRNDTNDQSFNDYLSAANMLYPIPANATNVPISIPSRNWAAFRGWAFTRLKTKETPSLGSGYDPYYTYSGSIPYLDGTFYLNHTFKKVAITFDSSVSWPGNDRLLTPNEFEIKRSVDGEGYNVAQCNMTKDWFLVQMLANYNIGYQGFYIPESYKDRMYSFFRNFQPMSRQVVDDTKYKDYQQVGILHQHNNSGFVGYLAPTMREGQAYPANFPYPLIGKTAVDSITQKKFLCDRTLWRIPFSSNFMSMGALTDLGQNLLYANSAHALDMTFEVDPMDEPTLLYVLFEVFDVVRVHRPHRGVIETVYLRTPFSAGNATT

B1: AdC68-Hexon单克隆抗体 (hybridoma-derived, purified from mouse ascites) (antibody, V domains shown)
VH: EVQLVETGGGLVQPKGSLKLSCAVSGLPFNTKAMDWVRQAPGEGLEWVARIRTKSNNYATYYADSVKDRFTISRDDAQSMLYLQMTNLKTEDTAMYYCVRDEASWGHGTLVTVSA
VL: DIVMTQIPLSLPVSLGDQASISCRSSQSLVHSDGNTYLHWYLQKPGQSPKLLIYKVSNRFSGVPDRFSGSGSGTDFTLKISRVEAEDLGVYFCSQSTHFPWTFGGGTKLEIK
notes: Mouse IgG1 (all positive hybridomas were IgG1); also called 抗AdC68-Hexon单克隆抗体; 亲本鼠源抗体
B1: the binding result in the test with 野生型人5型腺病毒的Hexon蛋白 [1] is given as “no binding (tested: antibody diluted 1:10000)”.

B2: 重组抗AdC68-Hexon小鼠单克隆抗体 (antibody, V domains shown)
VH: B1 VH
VL: DIVMTQIPLSLPVSLGDQASISCRSSQSLVHSDGNTYLHWYLQKPGQSPKLLIYKVSNRFSGVPDRFSGSGSGTDFTLKISRVEAEDLGVYFCSQSTHFPWTFGGGTKLEIKR
notes: domain: 小鼠IgGκ轻链恒定区; Expressed in HEK293, assembled as IgG1k, Protein A purified; also called 重组单克隆抗体; 重组抗AdC68-Hexon鼠单克隆抗体; not shown: mouse IgG1 heavy chain constant region (IgG1CH, GenBank No. NC_000078.7, a genomic entry)
In the case of B2, the binding result with 野生型人5型腺病毒的Hexon蛋白 [2] is listed as “no binding”.
